Results taken from article PMC11187106, “Master corepressor inactivation through multivalent SLiM-induced polymerization mediated by the oncogene suppressor RAI2” (Nature Communications, 2024).
Each block holds one binder with its values, some of them ahead of it.

What was measured:
Settings in all cases: both partners purified
CtBP1(WT, FL) [1] = molecular target: CtBP1(WT, FL) (human, UniProt Q13363 1-440); test: ITC; VP-ITC, 25 °C, 50 mM HEPES (pH 7.2), 150 mM NaCl; CtBP in the cell (10 µM for RAI2 M1 or M2, 20 µM for the WT RAI2 constructs), RAI2 in the syringe (100 µM); mean of three independent measurements ± SD
CtBP1(WT, FL) [2] = molecular target: T1, CtBP1(WT, FL) (human, UniProt Q13363 1-440); test: ITC; VP-ITC, 25 °C, 50 mM HEPES (pH 7.2), 150 mM NaCl; CtBP in the cell (10 µM for M1 or M2, 20 µM for WT RAI2 constructs), RAI2 constructs in the syringe (100 µM); mean of three measurements
CtBP1(K46W) [3] = molecular target: CtBP1(K46W) (human, UniProt Q13363 1-440, K46W); test: ITC; VP-ITC, 25 °C, 50 mM HEPES (pH 7.2), 150 mM NaCl; CtBP in the cell (10 µM for RAI2 M1 or M2, 20 µM for the WT RAI2 constructs), RAI2 in the syringe (100 µM); mean of three independent measurements ± SD
CtBP1(WT, FL) [4] = molecular target: CtBP1(WT, FL) (human, UniProt Q13363 1-440); test: as above; remark: listed apart in the source
CtBP1(K46W) [5] = molecular target: CtBP1(K46W) (human, UniProt Q13363 1-440, K46W); test: ITC; VP-ITC, 25 °C, 50 mM HEPES (pH 7.2), 150 mM NaCl; CtBP in the cell (10 µM for M1 or M2, 20 µM for WT RAI2 constructs), RAI2 constructs in the syringe (100 µM); mean of three measurements
CtBP1(WT, FL) [6] = molecular target: CtBP1(WT, FL) (human, UniProt Q13363 1-440); test: ITC; VP-ITC, 25 °C, 50 mM HEPES (pH 7.2), 150 mM NaCl; CtBP1 in the cell (20 µM for WT RAI2, 10 µM for M1 or M2), RAI2(303-362) variants 100 µM in the syringe; mean of three independent measurements
CtBP1(WT, FL) [7] = molecular target: T1, CtBP1(WT, FL); test: SEC; analytical Superose 6 3.2/300 GL, 50 mM HEPES (pH 7.2), 150 mM NaCl; CtBP kept at 100 µM, RAI2 variants titrated at 1:0.1, 1:0.2, 1:0.5, 1:1 and 1:2

- Kd (CtBP1(WT, FL) [1]): 1.5 µM
- stoichiometry N (CtBP1(WT, FL) [1]): 0.34
B1: RAI2(WT, 303-530) (domain or fragment)
chain: SRHTVIKMGSENEALDLSMKSVPWLKAGEVSPPIFQEDAALDLSVAAHRKSEPPPETLYDSGASVDSSGHTVMEKLPSGMEISFAPATSHEAPAMMDSHISSSDAATEMLSQPNHPSGEVKAENNIEMVGESQAAKVIVSVEDAVPTIFCGKIKGLSGVSTKNFSFKREDSVLQGYDINSQGEESMGNAEPLRKPIKNRSIKLKKVNSQEIHMLPIKKQRLATFFPRK

- binding result (CtBP1(WT, FL) [2]): binds
B2: RAI2(WT, 303–530) (domain or fragment)
chain: SRHTVIKMGSENEALDLSMKSVPWLKAGEVSPPIFQEDAALDLSVAAHRKSEPPPETLYDSGASVDSSGHTVMEKLPSGMEISFAPATSHEAPAMMDSHISSSDAATEMLSQPNHPSGEVKAENNIEMVGESQAAKVIVSVEDAVPTIFCGKIKGLSGVSTKNFSFKREDSVLQGYDINSQGEESMGNAEPLRKPIKNRSIKLKKVNSQEIHMLPIKKQRLATFFPRK
notes: source: E. coli BL21 DE3 LOBSTR, purified (HisTrap, TEV cleavage, Superdex 75); not shown: His6, N-terminal, cleaved

- Kd (CtBP1(K46W) [3]): 4.5 µM
- stoichiometry N (CtBP1(K46W) [3]): 0.26
- Kd (CtBP1(WT, FL) [4]): 1.1 µM
- stoichiometry N (CtBP1(WT, FL) [4]): 0.42
B3: RAI2(WT, 303-362) (domain or fragment)
chain: SRHTVIKMGSENEALDLSMKSVPWLKAGEVSPPIFQEDAALDLSVAAHRKSEPPPETLYD
notes: this construct came from the same vector (pETGB1a, TEV site) and may carry the same residues; source: E. coli BL21 DE3 LOBSTR, purified (HisTrap, TEV cleavage, Superdex 75); not shown: His6, N-terminal, cleaved

- fold change in binding stoichiometry against M1 and M2 (CtBP1(WT, FL) [2]): ~2 fold
- fold increase in binding affinity against M1 and M2 (CtBP1(WT, FL) [2]): 5 fold
- stoichiometry N (CtBP1(WT, FL) [2]): 0.5
- stoichiometry N (CtBP1(K46W) [5]): < 0.3
B4: RAI2(WT, 303–362) (domain or fragment, human, UniProt Q9Y5P3 303-362, looked up)
chain: SRHTVIKMGSENEALDLSMKSVPWLKAGEVSPPIFQEDAALDLSVAAHRKSEPPPETLYD
notes: 15N/13C-labelled for NMR; A residue of the TEV site (ENLYFQG) may remain at the N-terminus; PDB 8ARI holds the Δ11 variant of the same limits; source: E. coli BL21 DE3 LOBSTR, purified (HisTrap, TEV cleavage, Superdex 75); not shown: His6, N-terminal, cleaved

- Kd (CtBP1(WT, FL) [6]): 1.09 µM
- stoichiometry N (CtBP1(WT, FL) [6]): 0.42
B5: RAI2(WT, 303-362) (domain or fragment)
chain: SRHTVIKMGSENEALDLSMKSVPWLKAGEVSPPIFQEDAALDLSVAAHRKSEPPPETLYD
notes: Cloned in pETGB1a with a TEV site; also called Retinoic Acid-Induced 2; source: E. coli BL21 DE3 LOBSTR, purified (HisTrap, TEV cleavage, Superdex 75); not shown: His6, N-terminal, cleaved

- Kd (CtBP1(WT, FL) [4]): 5.5 µM
- stoichiometry N (CtBP1(WT, FL) [4]): 0.78
B6: RAI2(M1, 303-362) (domain or fragment)
chain: SRHTVIKMGSENEALDAAMKSVPWLKAGEVSPPIFQEDAALDLSVAAHRKSEPPPETLYD
notes: as for B2

- Kd (CtBP1(WT, FL) [6]): 3.87 µM
- stoichiometry N (CtBP1(WT, FL) [6]): 0.836
B7: RAI2(M2, 303-362) (domain or fragment)
chain: SRHTVIKMGSENEALDLSMKSVPWLKAGEVSPPIFQEDAALDAAVAAHRKSEPPPETLYD
notes: as for B2

- Kd (CtBP1(WT, FL) [6]): 5.53 µM
- stoichiometry N (CtBP1(WT, FL) [6]): 0.785
B8: RAI2(M1, 303-362) (domain or fragment)
chain: SRHTVIKMGSENEALDAAMKSVPWLKAGEVSPPIFQEDAALDLSVAAHRKSEPPPETLYD
notes: as for B2

- Kd (CtBP1(WT, FL) [2]): ~5 µM
B9: RAI2(M2, 303–362) (domain or fragment)
chain: SRHTVIKMGSENEALDLSMKSVPWLKAGEVSPPIFQEDAALDAAVAAHRKSEPPPETLYD
notes: 15N-labelled for NMR; PDB 8ARI holds the Δ11 variant of the same limits; source: E. coli BL21 DE3 LOBSTR, purified (HisTrap, TEV cleavage, Superdex 75); not shown: His6, N-terminal, cleaved

- Kd (CtBP1(WT, FL) [4]): 3.9 µM
- stoichiometry N (CtBP1(WT, FL) [4]): 0.84
B10: RAI2(M2, 303-362) (domain or fragment)
chain: SRHTVIKMGSENEALDLSMKSVPWLKAGEVSPPIFQEDAALDAAVAAHRKSEPPPETLYD
notes: as for B2

- Kd (CtBP1(WT, FL) [2]): ~5 µM
B11: RAI2(M1, 303–362) (domain or fragment)
chain: SRHTVIKMGSENEALDAAMKSVPWLKAGEVSPPIFQEDAALDLSVAAHRKSEPPPETLYD
notes: as for B9

- Kd (CtBP1(K46W) [3]): 7.2 µM
- stoichiometry N (CtBP1(K46W) [3]): 0.29
- Kd (CtBP1(WT, FL) [4]): 0.8 µM
- stoichiometry N (CtBP1(WT, FL) [4]): 0.41
B12: RAI2(Δ11, 303-362) (domain or fragment, UniProt Q9Y5P3 303-362, looked up)
chain: SRHTVIKMGSENEALDLSMKSVPWLKAGALDLSVAAHRKSEPPPETLYD
notes: as for B2

- Kd (CtBP1(WT, FL) [4]): 1.5 µM
- stoichiometry N (CtBP1(WT, FL) [4]): 0.32
B13: RAI2(WT, 303-465) (domain or fragment)
chain: SRHTVIKMGSENEALDLSMKSVPWLKAGEVSPPIFQEDAALDLSVAAHRKSEPPPETLYDSGASVDSSGHTVMEKLPSGMEISFAPATSHEAPAMMDSHISSSDAATEMLSQPNHPSGEVKAENNIEMVGESQAAKVIVSVEDAVPTIFCGKIKGLSGVSTKN
notes: this construct came from the same vector and may carry the same residues; source: E. coli BL21 DE3 LOBSTR, purified (HisTrap, TEV cleavage, Superdex 75); not shown: His6, N-terminal, cleaved

- binding result (CtBP1(WT, FL) [7]): binds
B14: RAI2(M1, 303–465) (domain or fragment)
chain: SRHTVIKMGSENEALDAAMKSVPWLKAGEVSPPIFQEDAALDLSVAAHRKSEPPPETLYDSGASVDSSGHTVMEKLPSGMEISFAPATSHEAPAMMDSHISSSDAATEMLSQPNHPSGEVKAENNIEMVGESQAAKVIVSVEDAVPTIFCGKIKGLSGVSTKN
notes: PDB 8ATI holds the M2 variant of the same limits; source: E. coli BL21 DE3 LOBSTR, purified (HisTrap, TEV cleavage, Superdex 75); not shown: His6, N-terminal, cleaved

- binding result (CtBP1(WT, FL) [7]): binds
B15: RAI2(M2, 303–465) (domain or fragment)
chain: SRHTVIKMGSENEALDLSMKSVPWLKAGEVSPPIFQEDAALDAAVAAHRKSEPPPETLYDSGASVDSSGHTVMEKLPSGMEISFAPATSHEAPAMMDSHISSSDAATEMLSQPNHPSGEVKAENNIEMVGESQAAKVIVSVEDAVPTIFCGKIKGLSGVSTKN
notes: only residues 315-321 (EALDLSM) are seen in the crystal structure; source: E. coli BL21 DE3 LOBSTR, purified (HisTrap, TEV cleavage, Superdex 75); not shown: His6, N-terminal, cleaved
